# Where a chain is given by its changes, count along the chain named.
# T1: human TGFβ2, mature receptor-binding domain (human, UniProt P09858 303-414 (pig entry), The mature TGFβ2 is a disulfide-linked homodimer of this 112-residue chain. The 4A11 epitope spans both monomers (p-1207).)
# T1 sequence: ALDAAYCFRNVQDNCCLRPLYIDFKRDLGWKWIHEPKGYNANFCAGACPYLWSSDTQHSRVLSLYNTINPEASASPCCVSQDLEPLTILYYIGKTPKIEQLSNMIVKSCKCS
# T2: human TGFβ3, mature dimeric form (human, UniProt P10600 301-412)
# T2 sequence: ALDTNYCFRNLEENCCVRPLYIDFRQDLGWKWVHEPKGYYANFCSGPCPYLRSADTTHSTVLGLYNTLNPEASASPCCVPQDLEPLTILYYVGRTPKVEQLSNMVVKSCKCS
# B1: h6F12.v1.1 (antibody, human IgG1, kappa, N297G, V domains shown)
# VH: EVTLKESGPVLVKPTETLTLTCTVSGFSLTTYNVHWVRQPPGKALEWMGLIWNTGGTRYNSALKSRLTISKDTSKSQVVLTMTNMDPVDTATYYCARDPVPNKWHFDFWGPGTLVTVSS
# VL: DIQMTQSPSTLSASVGDRVTITCLASEDIYSNLAWYQQKPGKAPKLLIYDARSLQDGVPSRFSGSESGPEYTLTISSLQPDDFATYFCQQHHAYPFTFGQGTKVEIKR
# B2: h6F12.v1.4 (antibody, human IgG1, kappa, N297G, V domains shown)
# VH: B1 VH
# VL: B1 VL with A43S, Y71F
# B3: h6F12.v1.2 (antibody, human IgG1, kappa, N297G, V domains shown)
# VH: B1 VH
# VL: B1 VL with A43S, E66G
# B4: h6F12.v1.7 (antibody, human IgG1, kappa, N297G, V domains shown)
# VH: B1 VH with M48L
# VL: B1 VL with A43S
# B5: h6F12.v1.6 (antibody, human IgG1, kappa, N297G, V domains shown)
# VH: B1 VH with V37I
# VL: B1 VL with A43S
# B6: h6F12.v1.3 (antibody, human IgG1, kappa, N297G, V domains shown)
# VH: B1 VH
# VL: B1 VL with A43S, P69T
# B7: h6F12.v1.9 (antibody, V domains shown)
# VH: B1 VH with P111R
# VL: DIQMTQSPSTLSASVGDRVTITCLASEDIYSNLAWYQQKPGKSPKLLIYDARSLQDGVPSRFSGSESGPEYTLTISSLQPDDFATYFCQQHHAYPFTFGQGTKVEIK
# B8: h6F12.v1.5 (antibody, human IgG1, kappa, N297G, V domains shown)
# VH: B1 VH
# VL: B1 VL with A43S, F87Y
# B9: h6F12.v1.8 (antibody, human IgG1, kappa, N297G, V domains shown)
# VH: B1 VH with G49A
# VL: B1 VL with A43S
# B10: h4A11.v7.4 (antibody, V domains shown)
# VH: EQQLQESGPGLVKPSETLSLTCTVTGFSLSSYTVNWVRQPAGKGLEWIGYISYGGSAYYASWANGRFTISKDSSKNQVSLKLSSVTAADTAVYFCARHMQVGGAPTGSMAAFDPWGPGTLVTVSS
# VL: EIVLTQSPGTLSLSPGERATLSCQSSQSVYNNNYLSWFQQKPGQPPRLLIYGASTLTSGVPDRFSGSGSGTDFTLTISRLEPEDFAVYYCAGGYSGSSDKYAFGGGTKVEIK
# B11: h4A11.v7.7 (antibody, V domains shown)
# VH: B10 VH
# VL: B10 VL with I2A, V60I
# B12: h4A11.v7.6 (antibody, V domains shown)
# VH: B10 VH
# VL: B10 VL with I2A, P45A
# B13: h4A11.v7.8 (antibody, human IgG1, kappa, N297G)
# heavy: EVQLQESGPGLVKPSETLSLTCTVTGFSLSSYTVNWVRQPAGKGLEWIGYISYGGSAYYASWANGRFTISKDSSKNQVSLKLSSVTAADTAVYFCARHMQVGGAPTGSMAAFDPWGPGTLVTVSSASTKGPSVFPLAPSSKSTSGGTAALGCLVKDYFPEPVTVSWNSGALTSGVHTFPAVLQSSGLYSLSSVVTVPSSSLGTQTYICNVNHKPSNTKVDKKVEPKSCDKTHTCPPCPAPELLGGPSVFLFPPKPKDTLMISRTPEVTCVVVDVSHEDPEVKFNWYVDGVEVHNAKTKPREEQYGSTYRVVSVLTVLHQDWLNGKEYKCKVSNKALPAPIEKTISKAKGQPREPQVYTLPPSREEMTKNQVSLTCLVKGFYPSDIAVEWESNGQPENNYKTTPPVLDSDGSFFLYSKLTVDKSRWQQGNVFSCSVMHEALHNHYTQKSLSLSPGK
# light: EAVLTQSPGTLSLSPGERATLSCQSSQSVYNNNYLSWFQQKPGQPPRLLIYGASTLTSGVPDRFSGSGSGTDFTLTISRLEPEDFAVYYCAGGYSGSSDKYAFGGGTKVEIKRTVAAPSVFIFPPSDEQLKSGTASVVCLLNNFYPREAKVQWKVDNALQSGNSQESVTEQDSKDSTYSLSSTLTLSKADYEKHKVYACEVTHQGLSSPVTKSFNRGEC
# B14: h4A11.v7.14 (antibody, human IgG1, kappa, N297G, V domains shown)
# VH: B10 VH with F94Y
# VL: EAVLTQSPGTLSLSPGERATLSCQSSQSVYNNNYLSWFQQKPGQPPRLLIYGASTLTSGVPDRFSGSGSGTDFTLTISRLEPEDFAVYYCAGGYSGSSDKYAFGGGTKVEIKR
# B15: h4A11.v7.15 (antibody, human IgG1, kappa, N297G)
# heavy: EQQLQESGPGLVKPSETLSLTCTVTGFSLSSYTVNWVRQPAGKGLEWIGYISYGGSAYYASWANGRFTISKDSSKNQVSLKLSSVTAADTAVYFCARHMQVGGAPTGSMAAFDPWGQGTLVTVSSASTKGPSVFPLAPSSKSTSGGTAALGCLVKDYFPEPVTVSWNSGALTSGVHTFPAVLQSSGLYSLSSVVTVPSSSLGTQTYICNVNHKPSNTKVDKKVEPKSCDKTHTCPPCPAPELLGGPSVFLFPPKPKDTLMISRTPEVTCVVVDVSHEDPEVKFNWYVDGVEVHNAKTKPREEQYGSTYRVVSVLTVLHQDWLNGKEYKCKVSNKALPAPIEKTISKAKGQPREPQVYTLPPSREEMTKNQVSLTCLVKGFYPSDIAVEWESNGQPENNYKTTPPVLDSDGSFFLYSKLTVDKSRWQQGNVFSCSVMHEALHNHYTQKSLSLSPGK
# light: B13 light
# B16: h4A11.v7.12 (antibody, human IgG1, kappa, N297G, V domains shown)
# VH: B10 VH with S73T
# VL: B14 VL
# B17: h4A11.v7.9 (antibody, human IgG1, kappa, N297G, V domains shown)
# VH: B10 VH with V37I
# VL: B14 VL
# B18: h4A11.v7.10 (antibody, human IgG1, kappa, N297G, V domains shown)
# VH: B10 VH with F67V
# VL: B14 VL
# B19: h4A11.v7.1 (antibody, human IgG1, kappa, N297G)
# heavy: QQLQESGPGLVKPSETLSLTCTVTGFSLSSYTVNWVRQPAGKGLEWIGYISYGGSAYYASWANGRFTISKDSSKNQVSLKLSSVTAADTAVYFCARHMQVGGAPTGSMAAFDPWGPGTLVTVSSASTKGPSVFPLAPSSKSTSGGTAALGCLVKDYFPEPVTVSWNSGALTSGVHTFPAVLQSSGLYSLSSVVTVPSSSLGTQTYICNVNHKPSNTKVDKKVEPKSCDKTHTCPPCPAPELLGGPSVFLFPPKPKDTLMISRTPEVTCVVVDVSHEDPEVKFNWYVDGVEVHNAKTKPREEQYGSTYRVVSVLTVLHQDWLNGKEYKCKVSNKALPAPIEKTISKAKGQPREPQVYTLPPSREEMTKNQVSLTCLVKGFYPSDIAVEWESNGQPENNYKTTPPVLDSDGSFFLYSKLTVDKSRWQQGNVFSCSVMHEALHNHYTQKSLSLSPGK
# light: B13 light
# B20: h4A11.v7.2 (antibody, human IgG1, kappa, N297G)
# heavy: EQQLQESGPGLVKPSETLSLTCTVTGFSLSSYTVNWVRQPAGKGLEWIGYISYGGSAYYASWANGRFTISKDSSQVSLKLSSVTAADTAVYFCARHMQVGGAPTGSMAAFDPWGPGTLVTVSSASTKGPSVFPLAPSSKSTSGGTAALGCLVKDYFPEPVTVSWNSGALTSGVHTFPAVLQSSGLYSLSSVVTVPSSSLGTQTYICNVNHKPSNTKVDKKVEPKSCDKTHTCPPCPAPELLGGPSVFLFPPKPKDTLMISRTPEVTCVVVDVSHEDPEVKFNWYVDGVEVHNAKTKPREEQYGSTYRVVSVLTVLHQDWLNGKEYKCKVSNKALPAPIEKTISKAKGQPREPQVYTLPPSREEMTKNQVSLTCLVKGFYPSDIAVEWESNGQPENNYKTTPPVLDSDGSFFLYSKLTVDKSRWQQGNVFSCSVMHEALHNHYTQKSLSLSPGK
# light: B13 light
# B21: h4A11.v7.3 (antibody, human IgG1, kappa, N297G)
# heavy: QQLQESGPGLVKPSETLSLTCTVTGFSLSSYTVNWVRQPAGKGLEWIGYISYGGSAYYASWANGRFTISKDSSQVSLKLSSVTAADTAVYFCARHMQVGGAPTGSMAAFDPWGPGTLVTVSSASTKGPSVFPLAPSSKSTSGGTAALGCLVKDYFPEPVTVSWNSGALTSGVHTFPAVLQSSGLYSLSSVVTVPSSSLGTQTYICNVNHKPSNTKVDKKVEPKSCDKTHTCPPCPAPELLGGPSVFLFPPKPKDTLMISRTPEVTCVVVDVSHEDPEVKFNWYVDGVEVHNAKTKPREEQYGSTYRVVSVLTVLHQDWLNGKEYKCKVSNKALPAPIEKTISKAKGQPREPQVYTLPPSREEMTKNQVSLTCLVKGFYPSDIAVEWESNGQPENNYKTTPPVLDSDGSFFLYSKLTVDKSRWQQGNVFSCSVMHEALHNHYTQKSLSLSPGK
# light: B13 light
# Molecular target: T1, human TGFβ2, mature receptor-binding …
# Assay: cell-based or functional assay
row,Binder,HEKBlue TGFβ blocking IC50 [nM]
1,B1,0.02
2,B2,0.02
3,B3,0.02
4,B4,0.03
5,B5,0.11
6,B6,0.01
7,B7,0.16
8,B8,0.04
9,B9,0.08

# Molecular target: T2, human TGFβ3, mature dimeric form
# Assay: cell-based or functional assay
row,Binder,HEKBlue TGFβ blocking IC50 [nM]
1,B1,> 200
2,B2,> 200
3,B3,> 200
4,B4,> 200
5,B5,> 200
6,B6,> 200
7,B7,> 200
8,B8,> 200
9,B9,> 200

# Molecular target: T3, human TGFβ1, mature receptor-binding domain (human, UniProt P01137 279-390)
# Assay: cell-based or functional assay
# T3 sequence (P01137 279-390 limits assumed): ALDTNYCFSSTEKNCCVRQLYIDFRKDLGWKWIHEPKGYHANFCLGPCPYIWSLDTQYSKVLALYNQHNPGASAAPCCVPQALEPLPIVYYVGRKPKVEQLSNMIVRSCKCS
row,Binder,HEKBlue TGFβ blocking IC50 [nM]
1,B1,> 200
2,B2,> 200
3,B3,> 200
4,B4,> 200
5,B5,> 200
6,B6,> 200
7,B7,> 200
8,B8,> 200
9,B9,> 200

# Molecular target: T1, human TGFβ2, mature receptor-binding …
# Assay: BIAcore T200
# Protocol: (§1) For binding affinity determinations of all humanized 2A10 antibodies, Surface Plasmon Resonance (SPR) measurement with a BIAcore™-T200 instrument was used. Briefly, series S CM5 biosensor chip with protein A was first applied to capture each humanized 2A10 variant to achieve approximately 100 response units (RU) on each flow cell, following by injection of 3-fold serial dilutions of human TGFβ1, TGFβ2 or TGFβ3 (0.02 nM to 5 nM) in HBS-EP buffer (0.01M HEPES pH 7.4, 0.15M NaCl, 3 mM EDTA and 0.05% v/v surfactant P20) at 25° C. with a flow rate of 50 μl/min for kinetics measurement. Association rates (ko.) and dissociation rates (koff) were calculated using a simple one-to-one Langmuir binding model (BIAcore T200 evaluation software version 2.0) to determine the equilibrium dissociation constant (KD), which was calculated as the ratio koff/kₒₙ.
# (§2) Binding affinity determinations of all humanized 4A11 antibodies were performed using SPR measurement with a BIAcore™-T200 instrument, as described above in Example 6 ([…]).
row,Binder,Kd [nM]
1,B10,0.0064
2,B11,0.0063
3,B12,0.0058
4,B13,0.0045
5,B14,0.0049
6,B15,0.0047
7,B16,0.006
8,B17,0.0049
9,B18,0.0056

# Molecular target: T2, human TGFβ3, mature dimeric form
# Assay: BIAcore T200
# Protocol: as §1, §2
row,Binder,Kd [nM]
1,B10,0.0043
2,B11,0.0061
3,B12,0.0065
4,B13,0.0053
5,B14,0.0055
6,B15,0.0048
7,B16,0.0065
8,B17,0.0057
9,B18,0.0068

# Molecular target: T1, human TGFβ2, mature receptor-binding …
# Assay: cell-based or functional assay
# Remark: another data set of the same source
row,Binder,HEKBlue TGFβ blocking IC50 [nM]
1,B10,0.01
2,B11,0.04
3,B12,0.01
4,B13,0.06
5,B19,0.09
6,B20,0.03
7,B21,0.03
8,B14,0.35
9,B15,0.09
10,B16,0.01
11,B17,0.08
12,B18,0.02

# Molecular target: T2, human TGFβ3, mature dimeric form
# Assay: cell-based or functional assay
# Remark: another data set of the same source
row,Binder,HEKBlue TGFβ blocking IC50 [nM]
1,B10,0.05
2,B11,0.04
3,B12,0.01
4,B13,0.03
5,B19,0.03
6,B20,0.01
7,B21,0.03
8,B14,0.04
9,B15,0.02
10,B16,0.03
11,B17,0.02
12,B18,0.02

# Molecular target: T3, human TGFβ1, mature receptor-binding …
# Assay: cell-based or functional assay
# Remark: another data set of the same source
row,Binder,HEKBlue TGFβ blocking IC50 [nM]
1,B10,> 200
2,B11,> 200
3,B12,> 200
4,B13,> 200
5,B19,> 33
6,B20,> 33
7,B21,> 33
8,B14,> 200
9,B15,> 200
10,B16,> 200
11,B17,> 200
12,B18,> 200

# Molecular target: T1, human TGFβ2, mature receptor-binding …
# Assay: cell-based or functional assay
# Remark: another data set of the same source
Binder,fold drop in blocking against h6F12.v1 [fold],fold loss of blocking against h4A11.v7 [fold]
B5,5 to 8,
B7,5 to 8,
B8,2,
B9,4,
B14,,4
